One may read the Kd as the free concentration of one partner at which half of the binding sites on the other are occupied at equilibrium, for simple one-to-one binding. A lower Kd goes with higher affinity.

The values that follow come from doi:10.1101/2022.08.26.505460.

For the assay, the target named is FN3^WDR5-cpYFP fusion protein.

The substance “WD40-repeat protein 5 (WDR5) (from UniProt P61964 31-334) (natural protein)” registered a Kd of 727 nM.
